Here are results for one molecule from PMC9113893, “Carbon Material Hybrid Construction on an Aptasensor for Monitoring Surgical Tumors”.

This series addresses carcinoembryonic antigen (CEA) (human, UniProt P06731 35-685). Briefly: electrochemical aptasensor (interdigitated electrode, sandwich); immobilized aptamer; 0.5-1000 ng/mL CEA in PBS, or spiked in 1:100 human serum; LOD 0.5 ng/mL (not a Kd); PBS or 1:100 diluted human serum; graphene-modified IDE blocked with 1% BSA; pH, salt and temperature not stated. Particulars: protein: commercial.

Chain of carcinoembryonic antigen (CEA) (P06731 35-685): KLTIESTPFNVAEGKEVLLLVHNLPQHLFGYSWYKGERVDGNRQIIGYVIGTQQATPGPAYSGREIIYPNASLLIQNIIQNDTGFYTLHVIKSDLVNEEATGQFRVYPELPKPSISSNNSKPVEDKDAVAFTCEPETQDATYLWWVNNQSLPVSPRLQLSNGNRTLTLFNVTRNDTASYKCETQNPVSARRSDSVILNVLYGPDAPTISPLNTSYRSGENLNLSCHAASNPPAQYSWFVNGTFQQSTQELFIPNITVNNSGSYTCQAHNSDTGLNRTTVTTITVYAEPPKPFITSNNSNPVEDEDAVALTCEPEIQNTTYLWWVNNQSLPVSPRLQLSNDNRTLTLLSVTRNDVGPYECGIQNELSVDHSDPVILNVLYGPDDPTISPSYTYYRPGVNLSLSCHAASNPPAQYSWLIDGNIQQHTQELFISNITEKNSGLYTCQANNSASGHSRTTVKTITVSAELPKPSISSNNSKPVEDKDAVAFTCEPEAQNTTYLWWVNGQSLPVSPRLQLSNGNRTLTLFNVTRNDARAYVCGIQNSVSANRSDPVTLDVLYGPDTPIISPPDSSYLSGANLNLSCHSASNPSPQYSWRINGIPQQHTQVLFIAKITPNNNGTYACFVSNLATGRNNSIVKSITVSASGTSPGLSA

For the molecule TATCCAGCTTATTCAATT (ssDNA, 3'-NH2) [anti-CEA capture aptamer], the binding result is “binds”.
